Data on 50 sequences can be found in the supplement of paper PMC9112550, “Optimization of the antimicrobial peptide Bac7 by deep mutational scanning” (BMC Biology, 2022).

The series relates to Escherichia coli TOP10. Nature of the series: shrunken log2 fold change of peptide-encoding DNA abundance (4.5 h post-induction vs induction); higher = less antimicrobial activity (less host growth inhibition). The note with it: time post-induction: 4.5 h; library: site-saturation at positions 5, 18, 19, 20.
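Note: peptides expressed intracellularly from a pBAD plasmid library in pooled LB shake-flask culture, induced with 0.3% L-arabinose, DNA abundance read by NGS, three biological replicates, DESeq2 with apeglm shrinkage.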

With RRIRTRPPRLPRPRPRPNKIPRP, the “shrunken log2 fold change” value was -0.799. On to RRIRPRPPRLPRPRPRPNAHPRP, for which the “shrunken log2 fold change” value was 0.247. As for RRIRRRPPRLPRPRPRPWDVPRP, the “shrunken log2 fold change” value is -0.149. RRIRVRPPRLPRPRPRPQKCPRP: the “shrunken log2 fold change” value is -0.0983. The same measure for RRIRHRPPRLPRPRPRPCVQPRP: -0.131; for RRIRMRPPRLPRPRPRPWARPRP: 0.306; for RRIRKRPPRLPRPRPRPFYGPRP: -0.0306. The result for RRIRRRPPRLPRPRPRPGAWPRP reads -9.3e-05; that for RRIRIRPPRLPRPRPRPGTKPRP, -0.0997. Take RRIRIRPPRLPRPRPRPVGSPRP: the “shrunken log2 fold change” value was determined as 0.36. As to RRIRPRPPRLPRPRPRPYVHPRP, the “shrunken log2 fold change” value was -0.356. Consider RRIRYRPPRLPRPRPRPYNCPRP, for which the “shrunken log2 fold change” value is -0.0167.

As for RRIRERPPRLPRPRPRPLRAPRP, the “shrunken log2 fold change” value amounted to 0.348. The result for RRIRKRPPRLPRPRPRPMNGPRP reads -0.0531; that for RRIRFRPPRLPRPRPRPWYDPRP, 0.13.

Regarding RRIRNRPPRLPRPRPRPIWQPRP, the “shrunken log2 fold change” value turned out to be 0.0123. Turning to RRIRVRPPRLPRPRPRPRDGPRP, the “shrunken log2 fold change” value was 1.09. The result for RRIRDRPPRLPRPRPRPQIRPRP reads -0.222; that for RRIRVRPPRLPRPRPRPCQLPRP, -0.202; that for RRIRIRPPRLPRPRPRPHVGPRP, -0.0138.

For the sequence RRIRQRPPRLPRPRPRPRCIPRP, the “shrunken log2 fold change” value is -0.188. The result for RRIRNRPPRLPRPRPRPTMWPRP reads -0.0923. The same measure for RRIRYRPPRLPRPRPRPTSAPRP: 0.0113; for RRIRCRPPRLPRPRPRPQLGPRP: -0.00405; for RRIRHRPPRLPRPRPRPTARPRP: 0.156. Turning to RRIRERPPRLPRPRPRPFAPPRP, the “shrunken log2 fold change” value stood at 0.117.

For the sequence RRIRYRPPRLPRPRPRPLIIPRP, the “shrunken log2 fold change” value was -1.2. The same measure for RRIRARPPRLPRPRPRPMIMPRP: -0.0807; for RRIRPRPPRLPRPRPRPHMDPRP: -0.374; for RRIRHRPPRLPRPRPRPCTTPRP: -1.7.

In the case of RRIRTRPPRLPRPRPRPMGLPRP, the “shrunken log2 fold change” value was 0.12. For the sequence RRIRQRPPRLPRPRPRPFFTPRP, the “shrunken log2 fold change” value was -0.343. On to RRIRDRPPRLPRPRPRPRICPRP, for which the “shrunken log2 fold change” value turned out to be 0.00396. For the sequence RRIRARPPRLPRPRPRPHVYPRP, the “shrunken log2 fold change” value is -0.0492. The result for RRIRLRPPRLPRPRPRPLVRPRP reads -0.105.

In the case of RRIRTRPPRLPRPRPRPPCPPRP, the “shrunken log2 fold change” value came out at 0.15. RRIRPRPPRLPRPRPRPGVMPRP: the “shrunken log2 fold change” value stood at 0.0104. In the case of RRIRNRPPRLPRPRPRPIPSPRP, the “shrunken log2 fold change” value came to 0.0499. On to RRIRRRPPRLPRPRPRPVAPPRP, for which the “shrunken log2 fold change” value turned out to be 0.436.

As to RRIRQRPPRLPRPRPRPMNHPRP, the “shrunken log2 fold change” value was -0.337. The same measure for RRIRRRPPRLPRPRPRPRLVPRP: 0.527; for RRIRFRPPRLPRPRPRPDCAPRP: 0.0274; for RRIRWRPPRLPRPRPRPESEPRP: 0.916. The result for RRIRVRPPRLPRPRPRPTYAPRP reads 0.141; that for RRIRIRPPRLPRPRPRPSWNPRP, -0.49; that for RRIRVRPPRLPRPRPRPPRPPRP, 0.648. The result for RRIRQRPPRLPRPRPRPQQFPRP reads 0.0507; that for RRIRWRPPRLPRPRPRPSWPPRP, 0.0582; that for RRIRMRPPRLPRPRPRPSTKPRP, 0.291.

For the sequence RRIRQRPPRLPRPRPRPFQTPRP, the “shrunken log2 fold change” value is -0.01.
